One molecule from paper PMC8242032, “Non-canonical function of DGCR8 in DNA double-strand break repair signaling and tumor radioresistance” (Nature Communications, 2021) can be followed below.

The assay addresses T1, MBP-DGCR8 (human, UniProt Q8WYQ5 1-773).
T1 construct: DGCR8, human, full-length, in an MBP-tagged destination vector; also called purified DGCR8; source: bacterially purified (eluted with maltose)
T1 sequence (looked up): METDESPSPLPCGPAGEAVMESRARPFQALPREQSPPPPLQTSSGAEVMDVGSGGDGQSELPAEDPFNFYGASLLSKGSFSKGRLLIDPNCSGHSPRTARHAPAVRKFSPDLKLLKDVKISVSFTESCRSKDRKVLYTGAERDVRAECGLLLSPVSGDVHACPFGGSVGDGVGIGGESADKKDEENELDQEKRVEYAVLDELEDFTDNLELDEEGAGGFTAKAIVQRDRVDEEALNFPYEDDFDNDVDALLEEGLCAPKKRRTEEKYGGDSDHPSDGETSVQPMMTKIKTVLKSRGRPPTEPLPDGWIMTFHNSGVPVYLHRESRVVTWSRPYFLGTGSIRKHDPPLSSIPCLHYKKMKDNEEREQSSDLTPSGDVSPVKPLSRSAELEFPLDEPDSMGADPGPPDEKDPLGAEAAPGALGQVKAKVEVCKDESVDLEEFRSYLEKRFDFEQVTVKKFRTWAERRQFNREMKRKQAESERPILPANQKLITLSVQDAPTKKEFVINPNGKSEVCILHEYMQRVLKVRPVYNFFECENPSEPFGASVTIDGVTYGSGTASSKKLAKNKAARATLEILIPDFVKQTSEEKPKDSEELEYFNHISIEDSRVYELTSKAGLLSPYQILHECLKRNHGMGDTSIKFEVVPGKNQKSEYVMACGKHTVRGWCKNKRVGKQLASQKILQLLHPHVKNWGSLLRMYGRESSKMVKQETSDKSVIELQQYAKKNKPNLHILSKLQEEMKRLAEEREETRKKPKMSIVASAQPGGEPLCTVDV
Nature of the assay: pull-down; SFB-USP51 (or SFB-GFP) purified from transfected HEK293T cells, retained on S-protein beads and incubated with purified MBP-DGCR8, 4 °C overnight; washed with NETN buffer. The settings on record: both partners purified.

B1: SFB-USP51 (enzyme, human, UniProt Q70EK9 1-711, looked up)
chain: MAQVRETSLPSGSGVRWISGGGGGASPEEAVEKAGKMEEAAAGATKASSRREAEEMKLEPLQEREPAPEENLTWSSSGGDEKVLPSIPLRCHSSSSPVCPRRKPRPRPQPRARSRSQPGLSAPPPPPARPPPPPPPPPPPAPRPRAWRGSRRRSRPGSRPQTRRSCSGDLDGSGDPGGLGDWLLEVEFGQGPTGCSHVESFKVGKNWQKNLRLIYQRFVWSGTPETRKRKAKSCICHVCSTHMNRLHSCLSCVFFGCFTEKHIHKHAETKQHHLAVDLYHGVIYCFMCKDYVYDKDIEQIAKETKEKILRLLTSTSTDVSHQQFMTSGFEDKQSTCETKEQEPKLVKPKKKRRKKSVYTVGLRGLINLGNTCFMNCIVQALTHIPLLKDFFLSDKHKCIMTSPSLCLVCEMSSLFHAMYSGSRTPHIPYKLLHLIWIHAEHLAGYRQQDAHEFLIAILDVLHRHSKDDSGGQEANNPNCCNCIIDQIFTGGLQSDVTCQACHSVSTTIDPCWDISLDLPGSCATFDSQNPERADSTVSRDDHIPGIPSLTDCLQWFTRPEHLGSSAKIKCNSCQSYQESTKQLTMKKLPIVACFHLKRFEHVGKQRRKINTFISFPLELDMTPFLASTKESRMKEGQPPTDCVPNENKYSLFAVINHHGTLESGHYTSFIRQQKDQWFSCDDAIITKATIEDLLYSEGYLLFYHKQGLEKD
notes: USP51, human DUB ORF in the pBabe-SFB vector; also called SFB-tagged USP51; source: HEK293T, transfected, in lysate; purified from transfected HEK293T cells
Consider B1, for which the binding result is listed as “binds”.
